Bridges are numbered along the chain shown (N, C = ends). Where no end group is shown, it is not given here. [ ]: non-standard residue; d: D form. The star is where a group is joined. Acetyl(2-(4-imidazolyl)) = O=C(Cc1c[nH]cn1)*; Aib = CC(C)(N)C(=O)O
Experiments:
Assay in all cases: cell-based or functional assay
human GLP-1 receptor = human GLP-1 receptor (human, UniProt P43220 24-463)
human GCG receptor = human GCG receptor (human, UniProt P47871 26-477)
human GIP receptor = molecular target: T1, human GIP receptor (human, UniProt P48546 22-466)
T1 sequence (looked up): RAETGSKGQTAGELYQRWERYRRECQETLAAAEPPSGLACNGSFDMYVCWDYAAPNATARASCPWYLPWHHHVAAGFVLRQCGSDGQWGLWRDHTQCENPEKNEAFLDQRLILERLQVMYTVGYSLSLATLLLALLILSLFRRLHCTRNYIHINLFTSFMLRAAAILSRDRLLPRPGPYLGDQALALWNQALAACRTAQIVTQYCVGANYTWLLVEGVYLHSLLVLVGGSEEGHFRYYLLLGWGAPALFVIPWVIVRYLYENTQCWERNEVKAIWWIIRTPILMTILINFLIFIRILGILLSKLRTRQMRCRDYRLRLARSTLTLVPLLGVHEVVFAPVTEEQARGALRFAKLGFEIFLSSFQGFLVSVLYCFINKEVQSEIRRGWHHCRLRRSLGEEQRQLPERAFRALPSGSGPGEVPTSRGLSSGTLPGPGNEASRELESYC

Sequence of human GCG receptor (P47871 26-477): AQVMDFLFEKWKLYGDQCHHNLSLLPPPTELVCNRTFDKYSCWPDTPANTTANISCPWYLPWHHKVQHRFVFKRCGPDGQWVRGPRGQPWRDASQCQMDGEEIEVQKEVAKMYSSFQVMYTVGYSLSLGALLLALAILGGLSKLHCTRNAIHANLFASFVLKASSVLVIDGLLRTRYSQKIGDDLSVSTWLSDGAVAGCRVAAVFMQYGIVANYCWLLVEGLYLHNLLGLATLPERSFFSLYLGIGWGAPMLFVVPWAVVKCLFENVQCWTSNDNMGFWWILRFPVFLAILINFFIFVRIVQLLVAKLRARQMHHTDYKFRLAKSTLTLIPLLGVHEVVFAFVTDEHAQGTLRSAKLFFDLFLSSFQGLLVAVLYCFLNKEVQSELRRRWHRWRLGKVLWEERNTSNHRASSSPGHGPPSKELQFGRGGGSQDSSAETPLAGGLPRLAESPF

H[Aib]EGTFTSDYSIAMDEIHQKDFVDWLLAEKC (bridge 16-20) [Triple agonist of SEQ ID NO: 80]
In vitro activity compared with native peptide (%) vs. GLP-1 (human GLP-1 receptor): 8.1%
In vitro activity compared with native peptide (%) vs. Glucagon (human GCG receptor): 0%
In vitro activity compared with native peptide (%) vs. GIP (human GIP receptor): 0.1%

Y[Aib]QGTFTSDYSKYLDECAAKDFVQWLLDHHPSSGQPPPS (also: ring formation, positions not given here) [Triple agonist of SEQ ID NO: 67]
In vitro activity compared with native peptide (%) vs. GLP-1 (human GLP-1 receptor): 28.5%
In vitro activity compared with native peptide (%) vs. Glucagon (human GCG receptor): 46.2%
In vitro activity compared with native peptide (%) vs. GIP (human GIP receptor): 39.8%

Y[Aib]QGTFTSDYSKYLDEKRAKDFVQWLLDHHPSSGQPPPSC (bridge 16-20) [Triple agonist of SEQ ID NO: 76]
In vitro activity compared with native peptide (%) vs. GLP-1 (human GLP-1 receptor): 10.3%
In vitro activity compared with native peptide (%) vs. Glucagon (human GCG receptor): 47.6%
In vitro activity compared with native peptide (%) vs. GIP (human GIP receptor): 11.7%

Y[Aib]QGTFTSDYSKYLDECRAKDFVQWLLDHHPSSGQPPPS (bridge 16-20) [Triple agonist of SEQ ID NO: 66]
In vitro activity compared with native peptide (%) vs. GLP-1 (human GLP-1 receptor): 15.8%
In vitro activity compared with native peptide (%) vs. Glucagon (human GCG receptor): 172%
In vitro activity compared with native peptide (%) vs. GIP (human GIP receptor): 17.2%

Y[Aib]QGTFTSDYSKYLDECAAKEFVQWLLDHHPSSGQPPPS (bridge 16-20) [Triple agonist of SEQ ID NO: 64]
In vitro activity compared with native peptide (%) vs. GLP-1 (human GLP-1 receptor): 64.6%
In vitro activity compared with native peptide (%) vs. Glucagon (human GCG receptor): 60.1%
In vitro activity compared with native peptide (%) vs. GIP (human GIP receptor): 92.9%

H[Aib]QGTFTSDYSKCLDEKRAKEFVQWLLDHHPSSGQPPPS (bridge 16-20) [Triple agonist of SEQ ID NO: 65]
In vitro activity compared with native peptide (%) vs. GLP-1 (human GLP-1 receptor): 95.4%
In vitro activity compared with native peptide (%) vs. Glucagon (human GCG receptor): 25.2%
In vitro activity compared with native peptide (%) vs. GIP (human GIP receptor): 11.6%

Y[Aib]QGTFTSDYSKYLDEKAAKEFVQWLLDHHPSSGQPPPSC (bridge 16-20) [Triple agonist of SEQ ID NO: 75]
In vitro activity compared with native peptide (%) vs. GLP-1 (human GLP-1 receptor): 35.1%
In vitro activity compared with native peptide (%) vs. Glucagon (human GCG receptor): 8.5%
In vitro activity compared with native peptide (%) vs. GIP (human GIP receptor): 18%

H[Aib]QGTFTSDVSKYLDGQAAKEFVAWLLKGC [Triple agonist of SEQ ID NO: 7]
In vitro activity compared with native peptide (%) vs. GLP-1 (human GLP-1 receptor): 13.7%
In vitro activity compared with native peptide (%) vs. Glucagon (human GCG receptor): < 0.1%
In vitro activity compared with native peptide (%) vs. GIP (human GIP receptor): < 0.1%

Y[Aib]QGTFTSDYSKCLDERAAKEFVQWLLDHHPSSGQPPPS (bridge 16-20) [Triple agonist of SEQ ID NO: 69]
In vitro activity compared with native peptide (%) vs. GLP-1 (human GLP-1 receptor): 24.3%
In vitro activity compared with native peptide (%) vs. Glucagon (human GCG receptor): 9.6%
In vitro activity compared with native peptide (%) vs. GIP (human GIP receptor): 62.8%

H[Aib]EGTFTSDYSIAMDEIHQKDFVNWLLAQKC (bridge 16-20) [Triple agonist of SEQ ID NO: 79]
In vitro activity compared with native peptide (%) vs. GLP-1 (human GLP-1 receptor): 41.5%
In vitro activity compared with native peptide (%) vs. Glucagon (human GCG receptor): 4.9%
In vitro activity compared with native peptide (%) vs. GIP (human GIP receptor): 1.4%

{Acetyl(2-(4-imidazolyl))}-[Aib]QGTFTSDYSKYLDEKRQKEFVQWLLNTC (bridge 15-19) [Triple agonist of SEQ ID NO: 81]
In vitro activity compared with native peptide (%) vs. GLP-1 (human GLP-1 receptor): 7.8%
In vitro activity compared with native peptide (%) vs. Glucagon (human GCG receptor): 0.3%
In vitro activity compared with native peptide (%) vs. GIP (human GIP receptor): < 0.1%

{Acetyl(2-(4-imidazolyl))}-[Aib]QGTFTSDYSIAMDEIACKDFVNWLLNTK (bridge 15-19) [Triple agonist of SEQ ID NO: 61]
In vitro activity compared with native peptide (%) vs. GLP-1 (human GLP-1 receptor): 59.8%
In vitro activity compared with native peptide (%) vs. Glucagon (human GCG receptor): < 0.1%
In vitro activity compared with native peptide (%) vs. GIP (human GIP receptor): 2.8%

{Acetyl(2-(4-imidazolyl))}-[Aib]QGTFTSDCSKYLDERAAQDFVQWLLDGGPSSGAPPPS [Triple agonist of SEQ ID NO: 63]
In vitro activity compared with native peptide (%) vs. GLP-1 (human GLP-1 receptor): 15.3%
In vitro activity compared with native peptide (%) vs. Glucagon (human GCG receptor): < 0.1%
In vitro activity compared with native peptide (%) vs. GIP (human GIP receptor): < 0.1%

H[Aib]QGTFTSDYSKYLDEKRQKEFVQWLLDTKC (bridge 16-20) [Triple agonist of SEQ ID NO: 78]
In vitro activity compared with native peptide (%) vs. GLP-1 (human GLP-1 receptor): 51%
In vitro activity compared with native peptide (%) vs. Glucagon (human GCG receptor): 14%
In vitro activity compared with native peptide (%) vs. GIP (human GIP receptor): 0.12%

Y[Aib]QGTFTSDYSKCLDEKRAKDFVQWLLDHHPSSGQPPPS (bridge 16-20) [Triple agonist of SEQ ID NO: 70]
In vitro activity compared with native peptide (%) vs. GLP-1 (human GLP-1 receptor): 15.1%
In vitro activity compared with native peptide (%) vs. Glucagon (human GCG receptor): 71.3%
In vitro activity compared with native peptide (%) vs. GIP (human GIP receptor): 64.4%

{Acetyl(2-(4-imidazolyl))}-[Aib]QGTFTSDKSKYLDERAAQDFVQWLLDGGPSSGAPPPS [Triple agonist of SEQ ID NO: 62]
In vitro activity compared with native peptide (%) vs. GLP-1 (human GLP-1 receptor): 5.2%
In vitro activity compared with native peptide (%) vs. Glucagon (human GCG receptor): < 0.1%
In vitro activity compared with native peptide (%) vs. GIP (human GIP receptor): < 0.1%

{Acetyl(2-(4-imidazolyl))}-[Aib]QGTFTSDYSKYLDECRAKEFVQWLLDHHPSSGQPPPS (bridge 15-19) [Triple agonist of SEQ ID NO: 73]
In vitro activity compared with native peptide (%) vs. GLP-1 (human GLP-1 receptor): 22.6%
In vitro activity compared with native peptide (%) vs. Glucagon (human GCG receptor): 5.4%
In vitro activity compared with native peptide (%) vs. GIP (human GIP receptor): 3%

H[Aib]QGTFTSDVSKYLDGQAAQEFVAWLLKGC [Triple agonist of SEQ ID NO: 8]
In vitro activity compared with native peptide (%) vs. GLP-1 (human GLP-1 receptor): 14.2%
In vitro activity compared with native peptide (%) vs. Glucagon (human GCG receptor): 0.1%
In vitro activity compared with native peptide (%) vs. GIP (human GIP receptor): < 0.1%

Y[Aib]QGTFTSDYSKYLDEKAAKDFVQWLLDHHPSSGQPPPSC (bridge 16-20) [Triple agonist of SEQ ID NO: 77]
In vitro activity compared with native peptide (%) vs. GLP-1 (human GLP-1 receptor): 38.7%
In vitro activity compared with native peptide (%) vs. Glucagon (human GCG receptor): 12.2%
In vitro activity compared with native peptide (%) vs. GIP (human GIP receptor): 35.5%

Y[Aib]QGTFTSDYSKYLDERACKDFVQWLLDHHPSSGQPPPS (bridge 16-20) [Triple agonist of SEQ ID NO: 71]
In vitro activity compared with native peptide (%) vs. GLP-1 (human GLP-1 receptor): 90.1%
In vitro activity compared with native peptide (%) vs. Glucagon (human GCG receptor): 12.7%
In vitro activity compared with native peptide (%) vs. GIP (human GIP receptor): 94.7%

Y[Aib]QGTFTSDCSKYLDERAAKDFVQWLLDHHPSSGQPPPS (bridge 16-20) [Triple agonist of SEQ ID NO: 72]
In vitro activity compared with native peptide (%) vs. GLP-1 (human GLP-1 receptor): 11.5%
In vitro activity compared with native peptide (%) vs. Glucagon (human GCG receptor): 1%
In vitro activity compared with native peptide (%) vs. GIP (human GIP receptor): 1.6%

{Acetyl(2-(4-imidazolyl))}-[Aib]QGTFTSDYSKCLDEKRAKEFVQWLLDHHPSSGQPPPS (bridge 15-19) [Triple agonist of SEQ ID NO: 74]
In vitro activity compared with native peptide (%) vs. GLP-1 (human GLP-1 receptor): 12.9%
In vitro activity compared with native peptide (%) vs. Glucagon (human GCG receptor): 0.9%
In vitro activity compared with native peptide (%) vs. GIP (human GIP receptor): 1%

Y[Aib]QGTFTSDYSKCLDEKAAKEFVQWLLDHHPSSGQPPPS (bridge 16-20) [Triple agonist of SEQ ID NO: 68]
In vitro activity compared with native peptide (%) vs. GLP-1 (human GLP-1 receptor): 27.9%
In vitro activity compared with native peptide (%) vs. Glucagon (human GCG receptor): 8.8%
In vitro activity compared with native peptide (%) vs. GIP (human GIP receptor): 107%
